Results: a protein production outcome set (Wang et al. 2014)

Test: label from the status in PepcDB records

Sequence	protein production
MEATEKLREKPIKSLFISYLIPAVLGMVLMSVNIVIDAVMISRGVGANGLAGVNVAIPAFSIFFSISLWIGMGGATLYSIALGENKIERARSIFTQSMTVAVIIVGVLAAICLWRIEDLAYVFGANEVILPYALDYLHVLLTFGMIYVLENILSTFIRNDGNPNLAMAGLVVTAVLNIVFDYIFIFIFKWGVTGAASATILSAAIGFLVLLTHFFRKSSILKWTKFHFEWDTVKQIMIIGFPSFTAESTVAIVTIGFNIAFVQYAGEVGVASYAMVNSIHAMTLLLFFGVGAALQPIASFHYGANLAERLREGLQFAVKIAVVLGGVAIIVGLFFGKYIIGLFDVQSPELLELTLTGMSLFFIQYVFLGYNIVYGEYFQSVRQTTKSVLIIMSRGLLFIIPLLWIMPKLFGINGIWLVMPVAEVLTAIIVFTMNRMKHPVPLNMAGEKEAI	failed
MTYLVTGATGGLGGYALNYLKELVPMTDIYALVRSEEKGADLKAAGFNIRIGDYSDAESMKQAFAGIDRVLFVSGAPGNRQVEHENVVNTAKEAGVSYIAYTSFADADNSTSALAADHIFTEKVIEKSGIEHTFLRNNWYFENEMPMIGGALNGGKFVYAAGNGKTGWALKREYAEVAAKAVAGARFPEILELSGPVMTYAELTEALKEATGKDFEVISSDDKGFVENLVNVGMPQPVAEMFLSFQHDIKNNQLDVTSGDFEKALGKPLTNRVDALRELLQ	failed
DEWTDEQFKQLISFKTQPGGWGVTDVHVRYANSAKYTYNLPVLVSGSTDNTDDRLVSFSLRDDTLDILNFEKFGNRPELYFRELPQKYYSFPKELTIPAGQSHALLPIEFSLDGLDDSQKWALPLKVCEDANGTYAVNPRKYYRTAVLRPILFNEFSGRFSGSSLLGTMAGESDIKFSSTEIKLNVVTDSIVFFYAGQRTEDYEDRINYKVFLQFTGDKVDSKKDLYKMKIWAENEKLKFNSYSTPTYKVSSEMDATKTYLKHTYIVISDIDFDFVDYTSVPNYEIEYNMKGGLSVSRDLDTRKPDEDQGSDSKWW	not failed
MITNNVSLLIMGIDENQERQKEYNGAFHTDALLLATFNKDDKTVKLTSIPRDTYTYVPVEKKKDKITHAYGSGFVKNGKDGGPQTSVEAVEKLLQVPVDYFVKFNFNSFTKIVDGLDGIEVDVPVEFTEQNSKDEPDAIHLKKGLQKLTGEEALALARTRHIDSDAMRGQRQQLVIEAILSKLKSVGSITKLEKIVEAVDGDFKTNLAMDDILSFYKYGLNCSIEKIQLAGDDLYLPNGPNGQRVYYYNPNKKDLQSLSNTLRTHLGLSEKQIEENLEHHHHHH	not failed
MTFGEKLLNAASTRGRLCVGIDPHESLLTSWGLPVNVDGLAEFSRACVEAFADTVALVKPQVAFYERFGSAGFAILEETIQTLRERGCLVVSDAKRGDIGSTMAGYASAWLDPASPLSSDAVTVSPYLGFHSLDPVFELAEQHGRGVFVLAATSNPEARELQDQQNADGVSISQQIVDQAAALNAPYMAQGKAGNIGVVIGATLSKPPRLSTLGGAILMPGVGAQGGTASDVDEIAGDMAHLAFPNVSRSILATGPDIAEMKNSVAKNAADFPGFPRS	failed
EMVLLPAPQIPLIMKIMKNHTPTWLPGVPTLYEKIVAEATAKGVEIKGIRNSFSGASTLPVRTVEDWENLTGGLLVEGYGLTETSPVLCGNPMNGNRRPGYIGVPFPDTEIRIANPDNLDETMPDGEAGEVLARGPQIFQGYLNKPEATAATFHGDWFRTGDMGVMEEDGFIRLVSRIKEIIITGGFNVYPAEVEEALIAHPDVDDAAVVGRPRKDGSEDVVACIVLKDGAALDPEGLKTHCRKLLTRYKVPRTFYHFEALNKDQLGKVRRREVQQTLLERLGEK	failed
MASTYYELLGVSKYASEADIKKAFKDLAKKYHPDKHPGEAFYEEHFKKINEAYQILSDKQARQNYDFRLQYGQHAQQSRPAQNQQRAYQRPTATYQQPKYRRPKPAASGTSAYQKKLNTYYISIAIGAVVFIFACYWFYSFMNTYSSKKYFNEGLKAESRGNDMQALSFYFSALEINLKNPEVNEKIGDLYSKFATNSSYDLFYYDLELQKNFQDPDFDATSIELLKKTRNVDSLAALYYKRSFENFEMPVDKRRVGLKSIKACLKTGDYKQAADNLYKVSFLPDYKRDDSVLYYRGDVIFQTRFYDQARDNYRKFLALHPTSAEASVKIAVCHYNEHNEDYALAQLAKTIKRFPANGEAYYFLGQIHLRNNDTLKACSNFYKADSLHVLAAKPSLYKYCRN	failed
MDFDYTIKALKTKKKLDAKPNTHTDFVYTTKALRSRKKLDTKPNIHTDFGYAIKAWRSKKKLDIVLESNMTRYMCMIEYKN	failed
MMKKLTALFVASTLALGAANLAHAAETTTAPSDSKPMMMHHKGGPGQHDMMFKGLNLTDAQKQQIRDIMKSQRENMKRPSLEERRAMHDLIASDTFDKAKAEAQIDKMEAQHKAMALSRLETQNKIYNILTPEQKKQFNANFEKHLTERNAPAGKMPAPAE	failed
MACHELSALRIAIGELLEKEAHDLLHEREELAPVLGQRPELKRLAEAKTLPALEEALREALLHLEERAAQEPEEPYWRGLLLAVEAMEGRLKALRAEAEALYQDLDALHGRLHRLFPRRR	not failed
MGIHLFWDSRVPVGLSRPVSEELSAVLEMPVSRIDDGIFPLEGFDPVRNQYDAVKVLLKLDMFRRRMPQIFKPADMDLEFYNKFNHLHEKILLVTPGDLYEPLADFVFGLAYPKLGVAIVSPHRLQNEFYGKYADDSALIDRIVKEGAHEIGHLFGLGHCDNPGCIMYCPRNLDELDRKRKYFCGKCRVQLNGDTLEDDLFSLEHHHHHH	not failed
MGSSHHHHHHSSGLVPRGSHMFKLTPAAAEQVLKAAKQGGTEGMCLRLAAGRNPDGSIDYRMGFDDLTEDDIRLTSEGVEIVIAPDYVSLLDQTTLDYVELEPGQFHFIFLNPRDPTYRPPSGG	not failed
MTEIKYKVITKDAFALPYTIIKAKNQPTKGVIVYIHGGGLMFGKANDLSPQYIDILTEHYDLIQLSYRLLPEVSLDCIIEDVYASFDAIQSQYSNCPIFTFGRSSGAYLSLLIARDRDIDGVIDFYGYSRINTEPFKTTNSYYAKIAQSINETMIAQLTSPTPVVQDQIAQRFLIYVYARGTGKWINMINIADYTDSKYNIAPDELKTLPPVFIAHCNGDYDVPVEESEHIMNHVPHSTFERVNKNEHDFDRRPNDEAITIYRKVVDFLNAI	failed
QPSRFLLKVLAGANIGAEFHLDSGKTYIVGSDPQVADIVLSDMSISRQHAKIIIGNDNSVLIEDLGSKNGVIVEGRKIEHQSTLSANQVVALGTTLFLLVDYAAPS	not failed
MGAVVVEPGSSSMVLGPEQVLDRASMHLANGLLGNPDSAAGLEVLLGGLKLRFVSGSAVAVTGAEGMVTLDGTELPLNKAVRVPPGAVLELGPAMFGIRYYLAVQGGISAQGEAAQGEAIRAGAALTFGRPNNHGSPEVNHPARRALDPERPVVARVSRGPQAQNDDAGTWLRLTSEPWILSPESDRAGARLVGRPLDVTSAPIPQAQPLVSGSVLLPSSGLPVIALAGHPDTSQSPVIAVVRDEDLDVLGQARPGQMVHLLG	failed
MPDWVTGTWLLALDWAIRLAALLWIPARTTPGAARSWLLLIGFVPVVGLPLYLLFGHPWLSRLRVERQATASQVIREQQLPLHALRWMPQADTSSAEVVPLIEREGDFMPTLGNAVELLDDYAQSLQALIAAIDAADKRVHLLYYLMFDDAVGEAVVVALERASARGVRCRVLLDAVGAKRGLRRYRKRLQDGGVQVLAVLPGGLRWRRSGRMDLRNHRKIAVLDNRVAFVGSQNLAEAGFIDGVPNRELVARVRGPVVNHLEAVFASDWFTETGERLDVWPDAPVCEANIATQLLPSGPAYPFENARDAINAVIHLARRKVVLVTPYFVPDEALLSALRIAPVSGVDVQLILSEHNNQRLAAWAQEAYFEELLRCGVKIALYRPHFLHAKHLSMDEDIALVGSINLDIRSFALNAEIGMLCYDTGVVQRLREIEQDYLANARQLTLEQWRRRPAWRRSREGIARLADALM	failed
MSSWRKPGPIPRDLSVEIDSSTERRIIAKLLPGVMGPGFRQDDAGEAAMSDPSAHWNNVYATKGETEVSWFQESPAISLDMIRSANVDRGAGIIDIGGGASRLVDALLQDGYRNLAVLDLSANALDAAKRRIGPAAASVDWIVADATTWRPARSYEVWHDRAAFHFLTDPRDRAAYVERLRSAVAAGGHVIIATFALDGPEKCSGLPVQRHDSKSLSTELGPDFELIETRSETHHTPWKSTQAFQFSRFRRRGS	failed
MADSRQAQGPGKSVLGIGQRIVTIIVEMVETRLRLAVVELEEEKANLFQLLLMVGLTMLFAAFGLMSLMVLVIWAIDPQYRLNAMIATTVVLLVLALIGGIWTLRKARQSTLLRHTRHELANDRQILEDDQS	failed
MLKLFAKYTSIGVLNTLIHWVVFGVCIYVAHTNQALANFAGFVVAVSFSFFANAKFTFKASTTTMRYMLYVGFMGTLSATVGWAADRCALPPMITLVTFSAISLVCGFVYSKFIVFRDAK	failed
LKGEPDCYALSLESSEQLTLEIPLNDSGSAGLGVSLKGNKSRETGTDLGIFIKSIIHGGAAFKDGRLRMNDQLIAVNGETLLGKSNHEAMETLRRSMSMEGNIRGMIQLVILRR	not failed
MEDGHISSWWVVDLGEEHQLMCNYYTFRQDGSRAFTRFWKFQGSMDGKTWTDLRVHEDDQTMCKAGQFASWPITAANALLPFRFFRLVLTGPTADTSTPWNFCICYLELYGYFR	failed
MNIFIAGLNYNMSEAELGELFAEYGEVVSVKIIMDRETGRSKGYGFVEMADDEAGDKAIAALNEVDMDGKTLSVSVARPREERPRRSYGNNGGGGYRGGNNSRGGGYGGSRGDNGYGGGRNRY	failed
MILELQNAILEMIAKGEPLAATIEQLCLKVEAAVPGIIASVLTFDGSRLHTLAGPSLPPDYSAAVDNLEAGPLAGSCGAAAYFGEAVVVTDIETDPRWQDFKSLVLPLGLKACWSSPIKRGERVIGSFAFYYRDHRGPKALERDLVEACVHLCTIAIDREERVMERQRLTYSDALTGLSNRARFNQLLAEDLPRSGRAWGILLVDIDNLKLVNDTFGHAAGDALIQVVADRVATTAGSQNTFRLGGDEFAVIVSDDKDLDLNARATDILKALSSPSTCDGHVVFPAATIGGALAETETNPDQTRQNADLALYHAKEHNRGRYVQHYPGLGTALTRRFRAVRDVGVALEDDRIDAHYQPILRLDTREIVGFEALCRMTTPSGEIIAAAHFHEATKDAHIAAELTQRMLLRVARDIRSWLARGLPLQHVGINLSAADFRGGNLQDRLCRIFGEAEVPLKHIILEVTESVYLGQRDYVVADEIKALRSKGLRVALDDFGTGYASLTHLLTVPVDIIKIDKSFIDRMVPGDAGTFIVEGLIGIADKLGIRVVAEGIETELQAVQLSQLGCKLGQGYLFSKAVDRTVAAAILEQHGQRLDQDKTRAGAL	failed
MRDTTWHVPEDDLRAYVQGELAPPRLWSADTHLAACERCRAALAEAGDPVALDAAWERLDAELDAPRPGMFESLLVRAGVADHTARLLTATPVLRRSWLGAVAFLLVMTVGIVLTVDSPALFLALAPLLPLAGVALSYGPVLDPTYEMAVVAPLHGFRLLLIRTLAVLATGLLLNGLATLALPGYGLRALAWLLPALALTGTGLALTPRLGPVLAPALTGGAWIGLLLVAQARTHETLAPFTMAGQGAAAVVAALAAGLLYRTRDRFDSVAARLPFAHLPGGGAV	failed
